For one series, the system named is metastatic colon cancer. The series can be described thus: Treatment of metastatic colon cancer with P2PDox conjugate of Class III anti-CEA antibody (Example 11). As to conditions: 8 weeks from treatment begin. The series is classed as in vivo, human. As for the experimental part: A prodrug form of 2-pyrrolinodoxorubicin, referred to herein as “P2PDox”, is prepared and conjugated to the hMN-14 antibody as disclosed in U.S. patent application Ser. No. 14/175,089, the Figures and Examples sections of which are incorporated herein by reference.
A person with metastatic colon cancer (3-5 cm diameters) to their left and right liver lobes, as well as a 5 cm metastasis to their right lung, and an elevated blood CEA value of 130 ng/mL, is treated with a 150 mg dose of hMN-14 Class III anti-CEA antibody conjugated to P2PDox at 4 drug molecules per IgG, administered by slow intravenous infusion every other week for 4 doses. […] At the same time, their blood CEA titer is reduced to 30 ng/mL. Repeated courses of therapy continue as their neutropenia normalizes.

The test system of series [1] is LS174T human colon adenocarcinoma. The series is described as follows: Biodistribution of 131I-labelled humanized MN-14 IgG in nude mice bearing human colon cancer. The series is classed as in vivo. As for the experimental part:
The biodistribution of labeled humanized MN-14 IgG in nude mice bearing human colon cancer was determined. For radiolocalization studies, at 4-5 weeks female athymic mice (nu/nu, Harlan, Indianapolis, Ind.) were given s.c. 0.2 ml of a 10% suspension of LS174T human colon adenocarcinoma prepared from a xenograft serially propagated in an athymic mouse (Sharkey et al., Cancer Res., 50: 828-34 (1990)). After waiting 2 weeks for tumor development, the mice were injected i.v. with 20 μCi (about 2 μg) of ^131I-labelled humanized MN-14 antibodies. Groups of 4-5 mice were sacrificed at intervals thereafter, and radioactivity localized in tissues. […] Tumor:nontumor ratios were excellent.

For series [2] the following is noted: compared with rituximab; cited from earlier work.
The subject of series [3] is GW-39 human colonic tumor. The series can be described thus: In vivo therapy of lung metastases of GW-39 human colonic tumors in nude mice. As to conditions: 250 μg, q4d×8, therapy initiated 14 days after i.v. tumor injection. As for the experimental part:
FIG. 3. Survival curves of hMN14-CL-SN-38 treated mice bearing GW-39 lung metastatic disease.
Alternative immunoconjugates, comprising different linkers between the antibody and the SN-38, were prepared as disclosed in U.S. Pat. No. 7,591,994, the Figures and Examples section of which are incorporated herein by reference. A lung metastatic model of colonic carcinoma was established in nude mice by i.v. injection of GW-39 human colonic tumor suspension, and therapy was initiated 14 days later. Specific anti-CEACAM5 antibody conjugates, hMN14-CL1-SN-38 and hMN14-CL2-SN-38, as well as nontargeting anti-CD22 antibody control conjugates, hLL2-CL1-SN-38 and hLL2-CL2-SN-38 and equidose mixtures of hMN14 and SN-38 were injected at a dose schedule of q4d×8, using different doses. […] The dose-responsiveness of therapeutic effect of conjugated antibody was also observed.

Series [4] concerns Capan 1 human pancreatic carcinoma. The series is described as follows: In vivo therapy of athymic nude mice bearing Capan 1 pancreatic tumor xenografts with antibody-CL2A-SN-38 conjugates. As to conditions: Capan 1 s.c. xenograft, FIG. 1. As for the experimental part: FIG. 1. In vivo therapy of athymic nude mice, bearing Capan 1 human pancreatic carcinoma, with antibody-CL2A-SN-38 conjugates.
(§1) The efficacy of drug-conjugated Class III anti-CEA antibody was investigated. Immunoconjugates comprising antibody-SN-38 conjugates were prepared as discussed in U.S. Pat. No. 7,999,083, the Figures and Examples sections of which are incorporated herein by reference. Immune-compromised athymic nude mice (female), bearing subcutaneous human pancreatic or colon tumor xenografts were treated with either specific CL2A-SN-38 conjugate or control conjugate or were left untreated. The therapeutic efficacies of the specific conjugates were observed.

Series [5] relates to LS174T human colon carcinoma. The series is described as follows: In vivo therapy of athymic nude mice bearing LS174T colon carcinoma xenografts. As to conditions: LS174T s.c. xenograft, FIG. 2. As for the experimental part:
FIG. 2. In vivo therapy of athymic nude mice, bearing LS174T human colon carcinoma, with hMN-14-CL2A-SN-38 conjugate.
as §1

For series [6], the system named is stage-IV metastatic colonic cancer. The series can be described thus: Therapy of advanced colon cancer patient refractory to prior chemo-immunotherapy with IMMU-130 (Example 4). The series is classed as in vivo, human. As for the experimental part:
Thereafter, they were given courses of cetuximab, either alone or combined with FOLFIRI (leucovorin, 5-flurouracil, irinotecan) chemotherapy during the next year or more. […] The index lesions chosen by the radiologist for measuring tumor size change by computed tomography were the mid-lobe of the right lung and the liver metastases, both totaling 91 mm as the sum of their longest diameters at the baseline prior to IMMU-130 (anti-CEACAM5-SN-38) therapy.
This patient received doses of 16 mg/kg of IMMU-130 by slow IV infusion every other week for a total of 17 treatment doses.

The test system of series [7] is metastatic colonic cancer (Stage IV). The series can be described thus: Therapy of a patient with advanced colonic cancer with IMMU-130 (Example 5). The series is classed as in vivo, human. As for the experimental part: This patient is a person initially diagnosed with metastatic colonic cancer (Stage IV). […] Their baseline CEA titer just before this therapy is 15 ng/mL. […] The patient continues their investigational therapy.

The next series relates to gastric adenocarcinoma. The series can be described thus: Gastric cancer patient with stage IV metastatic disease treated with IMMU-130 (Example 6). The class given is in vivo, human. As for the experimental part: The patient is a person who sought medical attention because of gastric discomfort and pain related to eating for about 6 years, and with weight loss during the past 12 months. […] The patient has their gastric tumor resected, and then has baseline CT measurements of their metastatic tumors.
The patient is then given experimental therapy with IMMU-130 (anti-CEACAM5-SN-38) on a weekly schedule of 8 mg/kg. […] The patient then undergoes a CT study to measure their metastatic tumor sizes and to view the original area of gastric resection.

A further series concerns rectal carcinoma. The series is described as follows: Continuous infusion of labetuzumab-SN-38 in patient with liver metastases of rectal carcinoma (Example 8). The series is classed as in vivo, human. As for the experimental part: The patient was previously resected for a rectal carcinoma and receives pre- and post-operative radiochemotherapy as per conventional treatment. […] They then receive a repeat continuous infusion therapy 5 weeks later, now for 3 weeks, at 1 mg/kg.

Series [8] deals with advanced metastatic colon cancer. The series is described as follows: Therapy of advanced metastatic colon cancer with anti-CEACAM5 immunoconjugate (Example 9). The series is classed as in vivo, human. As to conditions: 12 mg/kg every other week, irinotecan-unresponsive. As for the experimental part: The patient is a person who fails prior therapies for metastatic colon cancer. The first line of therapy is FOLFIRINOX+AVASTIN® (built up in a stepwise manner) starting with IROX (Irinotecan+Oxaliplatin) in the first cycle. […] This is followed by surgery to remove tumor tissue. […] This leads to the initiation of the second line regimen (FOLFIRI+Cetuximab). […] Then RF ablation of liver metastases is performed, followed by continuation of adjuvant chemotherapy with FOLFIRINOX+Cetuximab, followed by maintenance Cetuximab for approximately one year. […] This leads to a wedge resection of the lung nodules. Subsequently FOLFIRI+Cetuximab is restarted and continued. Later CT scans show both lung and liver metastases.
At the time of administration of the hMN-14-SN-38 immunoconjugate, the patient has advanced metastatic colon cancer, with metastases of both lung and liver, which is unresponsive to irinotecan (camptothecin). The hMN-14-SN-38 immunoconjugate is administered at a dosage of 12 mg/kg, which is repeated every other week.
The effect of the antibody moiety in improved targeting of the camptothecin accounts for the efficacy of the SN-38 moiety in the cancer that had been previously resistant to unconjugated irinotecan.

Setting [9] is: 131I-labelled, i.v., nude mice bearing LS174T.

For the substance “hMN-14 Class III anti-CEA antibody conjugated to P2PDox”, the “reduction of the total mean diameters of the 3 target lesions (CT)” value in the series with metastatic colon cancer (150 mg every other week for 4 doses) is listed as 25%. The “response by RECIST1.1 criteria” value in the series with metastatic colon cancer was “good stable disease response”. Moreover, the “blood CEA titer” value in the series with metastatic colon cancer (130 ng/mL before) worked out at 30 ng/mL.

In the case of “hMN-14: humanized Class III anti-CEA (anti-CEACAM5) antibody; heavy and light chains SEQ ID NO:1 and SEQ ID NO:2”, in [1] (setting [9]), the “time of maximum tumor accretion” value was no more than 2 days and the “tumor accretion of the antibody” value is “excellent tumor accretion”. For the same substance, in series [1] (131I-labelled, nude mice bearing LS174T), the “Tumor:nontumor ratios” value is given as “excellent”. In addition, the “uptake by the spleen” value in series [1] (compared with mMN-14) is reported as “higher uptake of hMN-14 by the spleen than there was of mMN-14”. For the same substance, the blood clearance entry in series [1] (compared with parental mMN-14) is reported as “more rapid than the parental mMN-14 antibody”.

For “veltuzumab: humanized IgG1 antibody against CD20”, the immunogenicity in subjects entry in series [2] is “less immunogenic in subjects than rituximab”.

In turn, “hLL2-CL1-SN-38: nontargeting anti-CD22 antibody control conjugate” registered a median survival in series [3] of 56 days.

In turn, “hLL2-CL2-SN-38: nontargeting anti-CD22 antibody control conjugate” yielded a median survival in series [3] of 77 days.

With hRS7-CL2A-SN-38, the therapeutic efficacy result in [4] is listed as “better efficacies than control hA20-CL2A-SN-38 conjugate”.

In the case of IMMU-130, in [4], the therapeutic efficacy entry is “better efficacies than control hA20-CL2A-SN-38 conjugate”. For the same substance, the therapeutic efficacy entry in series [5] is reported as “more efficacious than non-treatment”. Besides, in series [6] (16 mg/kg IV every other week, after the first treatment and treatments 4 and 5), the “side effects (nausea, diarrhea, fatigue)” value was “grade 1 nausea, diarrhea and fatigue”. Also, in series [6] (16 mg/kg every other week), the “duration of fatigue after the first infusion” value is reported as 2 weeks; the “duration of nausea, diarrhea and occasional vomiting” value was in the range of 2 to 3 days. Also, the alopecia result in series [6] (16 mg/kg every other week, after treatment 3) is on record as “grade 2”. For the same substance, in [6] (after 4 treatments, 16 mg/kg every other week), the “change of sum of index lesions (CT) from baseline” value is given as 28.6%. Moreover, in [6] (after 8 treatments), the “reduction of sum of index lesions (CT) from baseline” value worked out at 40.6% and the “response according to RECIST criteria” value is recorded as “partial remission”. Further, the “anti-labetuzumab antibody in blood” value in series [6] (after 16 doses) is recorded as “none was detected”. The “plasma CEA titer” value in series [6] (after the third therapy dose, baseline 12.6 ng/mL) amounted to 2.1 ng/mL. Further, the “index lesions less than baseline (CT)” value in series [6] (another 2 months after the 8-treatment evaluation) was 31.9%. Besides, in series [7] (6 mg/kg twice weekly for 2 weeks, one week rest, more than 20 doses), the tolerability result was “tolerated very well, without any major hematological or non-hematological toxicities”. The “shrinkage of the index tumor lesions” value in series [7] (8-week evaluation) was determined as 21%. For the same substance, in [7] (13 weeks), the “ascites and pleural effusion” value is on record as “both decrease”; the “shrinkage of the index tumor lesions” value amounted to 27%. The “plasma CEA titer” value in [7] (within 2 months of therapy, baseline 15 ng/mL) is recorded as 1.3 ng/mL. Moreover, in the series on gastric adenocarcinoma (8 mg/kg weekly, after 3 weeks), the diarrhea result is recorded as “grade 1” and the neutropenia entry is reported as “grade 2”. Besides, the “decrease of the sum of the metastatic lesions (CT, RECIST) vs. baseline” value in the series with gastric adenocarcinoma (8 mg/kg weekly, first CT study on therapy) came to 23%. Also, in the series with gastric adenocarcinoma (after a total of 13 infusions), the “decrease of the sum of all metastatic lesions (CT)” value came out at 41% and the “response by RECIST” value was “partial response”. This substance also returned a CEA titer with gastric adenocarcinoma (at first CT study, pre-IMMU-130 baseline 14.5 ng/mL) of 7.2 ng/mL. Also, the “blood CEA” value in the series with gastric adenocarcinoma (last measurement, after maintenance therapy every third week) was found to be 4.8 ng/mL. In the series with rectal carcinoma (continuous infusion 2 mg/kg over 17 days, then 1 mg/kg for 3 weeks, three weeks later), the “liver metastases by CT” value was 1 of the liver metastases has disappeared. In addition, in the series on rectal carcinoma (three weeks after second infusion, 6.3 ng/mL before), the “blood CEA titer” value is given as 2.4 ng/mL. For the same substance, in the series on rectal carcinoma (while under therapy), the nausea and vomiting result is reported as “grade 2”; the neutropenia result was “grade 2”. In addition, the “response by RECIST criteria” value in [8] was “partial response”.

The values above are taken from patent US20150125386A1, “HUMANIZED ANTI-CEACAM5 ANTIBODY AND USES THEREOF” (IMMUNOMEDICS, INC., priority 2013, published 2015).
